The test system of data set [1] is COc1ccc([C@H]2COc3cc(O)ccc3[C@@H]2O)c(O)c1. Description: medicarpin formation, chiral HPLC (RU-2). The class given is biochemical, Glycyrrhiza echinata. The settings on record: 0.1 M sodium phosphate pH 6.6, 30 °C, 5 min, BSA, racemic trans-DMI supplied. An excerpt:
(§1) medicarpin formation, chiral HPLC (RU-2) on GePTS1

Data set [2] relates to COc1ccc([C@@H]2COc3cc(O)ccc3[C@@H]2O)c(O)c1. The data set can be described thus: medicarpin formation, chiral HPLC (RU-2). The format is biochemical, Glycyrrhiza echinata. The settings on record: 0.1 M sodium phosphate pH 6.6, 30 °C, 5 min, BSA, racemic cis-DMI supplied.
From the text: as §1

The subject of data set [3] is COc1ccc([C@H]2COc3cc(O)ccc3[C@@H]2O)c(O)c1. Description: purified protein. The settings on record: 0.1 M sodium phosphate pH 6.6, 30 °C, 5 min, BSA, racemic trans-DMI supplied, kinetics calculated on (3S,4R) conversion.
Data set [4] has as its system COc1ccc([C@@H]2COc3cc(O)ccc3[C@@H]2O)c(O)c1. The data set can be described thus: purified protein. The settings on record: 0.1 M sodium phosphate pH 6.6, 30 °C, 5 min, BSA, racemic cis-DMI supplied, kinetics calculated on (3R,4R) conversion.
Where [5] appears, read: kinetics calculated on (3S,4R) conversion.
Setting [6] is: kinetics calculated on (3R,4R) conversion.
The mark [7] stands for this setting: (3S,4R) converted, pET100 construct.
[8] abbreviates: (3R,4R) converted, pET100 construct.

For the substance GePTS1 (Glycyrrhiza echinata), in data set [1] (setting [5]), the Km is 680 µM, the kcat is 15.9 s⁻¹ and the catalytic efficiency (kcat/Km) was 23400 M⁻¹ s⁻¹. Moreover, in data set [2] (setting [6]), the Michaelis-Menten constant (Km) was 145 µM, the catalytic constant (kcat) is 59.9 s⁻¹ and the kcat/Km was 413000 M⁻¹ s⁻¹.
Regarding GePTS1 (Glycyrrhiza echinata; D50A), in data set [1] (setting [7]), the Km is 520 µM, the kcat came out at 0.2 s⁻¹ and the kcat/Km worked out at 370 M⁻¹ s⁻¹. Also, in data set [2] (setting [8]), the Km is reported as 1,175 μM, the turnover number (kcat) amounted to 4.9 s⁻¹ and the catalytic efficiency (kcat/Km) turned out to be 4180 M⁻¹ s⁻¹.
Turning to GePTS1 (Glycyrrhiza echinata; D83A), in data set [1] (setting [7]), the Michaelis-Menten constant (Km) is 665 µM, the turnover number (kcat) was 1.3 s⁻¹ and the kcat/Km is 1960 M⁻¹ s⁻¹. In data set [2] (setting [8]), the Km is given as 1,300 μM, the kcat came out at 6.3 s⁻¹ and the kcat/Km is 4870 M⁻¹ s⁻¹.
As for GePTS1 (Glycyrrhiza echinata; Y103F), in data set [1] (setting [7]), the Km was 3,320 μM, the catalytic constant (kcat) was determined as 5.9 s⁻¹ and the kcat/Km worked out at 1830 M⁻¹ s⁻¹. In data set [2] (setting [8]), the Km stood at 555 µM, the turnover number (kcat) was 6.9 s⁻¹ and the kcat/Km was found to be 12300 M⁻¹ s⁻¹.
Regarding GePTS1 (Glycyrrhiza echinata; Y181F), in data set [1] (setting [7]), the Km was 5,665 μM, the kcat stood at 4 s⁻¹ and the specificity constant (kcat/Km) is 710 M⁻¹ s⁻¹. Besides, in data set [2] (setting [8]), the Km was 825 µM, the kcat worked out at 5.2 s⁻¹ and the specificity constant (kcat/Km) was 6310 M⁻¹ s⁻¹.
Turning to PsPTS1 (Lathyrus oleraceus), in data set [3], the Km was 830 µM, the turnover number (kcat) is 3.3 s⁻¹ and the specificity constant (kcat/Km) is 3930 M⁻¹ s⁻¹. In addition, in data set [4], the Km is 890 µM, the kcat is 50.5 s⁻¹ and the specificity constant (kcat/Km) is 56800 M⁻¹ s⁻¹.

(Values after publication PMC7450108, “Pterocarpan synthase (PTS) structures suggest a common quinone methide–stabilizing function in dirigent proteins and proteins with dirigent-like domains” (The Journal of Biological Chemistry, 2020).)
